Where “and” joins values, the source holds several entries; their conditions need not be identical. Identical values can stand only once.
What was measured:
[1] = target: T1, rhVEGF-D (AcroBio_VED-H5228) (human, UniProt O43915 89-205, limits assumed); assay: ELISA: rhVEGF-D_AcroBio coated at 1 ug/mL, RO-101_Sample 1 titrated, detected with anti-human IgG Fc-gamma-HRP
T1 construct: domain: PDGF domain; Bought protein; not shown: His tag
T1 sequence (looked up): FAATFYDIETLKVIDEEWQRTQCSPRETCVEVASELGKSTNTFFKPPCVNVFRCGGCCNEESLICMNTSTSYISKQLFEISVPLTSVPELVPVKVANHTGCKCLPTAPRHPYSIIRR
Experimental: (§1) Different target proteins were used to coat Corning 9017 medium binding plates at 1 μg/mL and 100 μl per well. Donkey anti-human IgG Fcγ-HRP was used for detection. OD450 nm readings were measured by Victor 3.

[2] = target: T2, Recombinant human VEGF165 (Peprotech, Cat #100-20) (human, UniProt P15692-4 27-191); assay: ELISA on coated human VEGF-A (rhVEGF165)
T2 construct: Bought protein; also called rhVEGF165; rh VEGF165

[3] = target: T3, Recombinant human ANG-2 (R&D Systems, Cat #623-AN-025/CF) (human, UniProt O15123 19-496, limits assumed); assay: ELISA on rhANG-2 by an independent team; first of three runs by an independent team (average 0.0491 nM)
T3 construct: also called rhANG-2
T3 sequence (looked up): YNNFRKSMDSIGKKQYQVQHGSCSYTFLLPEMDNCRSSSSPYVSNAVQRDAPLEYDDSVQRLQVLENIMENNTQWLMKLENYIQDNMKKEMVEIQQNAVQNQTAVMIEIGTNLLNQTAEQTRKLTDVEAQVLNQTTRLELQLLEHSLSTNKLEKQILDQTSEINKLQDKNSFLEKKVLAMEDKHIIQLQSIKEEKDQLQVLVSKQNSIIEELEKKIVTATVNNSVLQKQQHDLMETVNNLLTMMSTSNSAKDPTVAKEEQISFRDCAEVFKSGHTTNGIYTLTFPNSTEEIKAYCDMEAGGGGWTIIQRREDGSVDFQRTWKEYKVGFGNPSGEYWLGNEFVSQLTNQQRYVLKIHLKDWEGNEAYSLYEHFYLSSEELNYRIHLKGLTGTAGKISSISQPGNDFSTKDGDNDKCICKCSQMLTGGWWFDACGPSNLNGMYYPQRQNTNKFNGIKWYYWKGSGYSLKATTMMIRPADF

[4] = target: T3, Recombinant human ANG-2 (R&D Systems, …); assay: ELISA; rhANG-2 (R&D) coated, anti-human IgG Fc-HRP detection
Text: The binding was detected by HRP-conjugated donkey anti-human IgG Fcγ antibody (Jackson ImmunoResearch Laboratories, Cat #709-035-098).

[5] = target: T2, Recombinant human VEGF165 (Peprotech, …); assay: ELISA; target coated at 1 ug/mL, anti-human IgG Fc-HRP detection
Experimental: Third, the binding to rhPIGF-1 or rhPIGF-3 was tested in comparison with rhVEGF₁₆₅. Target proteins were used to coat Corning 9017 medium binding plates at 1 μg/mL and 100 μl per well. […] Donkey anti-human IgG Fcγ-HRP was used for detection. OD450 nm readings were measured by Victor 3.

[6] = target: T2, Recombinant human VEGF165 (Peprotech, …); assay: as above; remark: listed apart in the source
Experimental: as §1

[7] = target: T3, Recombinant human ANG-2 (R&D Systems, …); assay: ELISA on rhANG-2 by an independent team; ratio of average EC50 against Faricimab
[8] = target: T4, rrANG-2 (rabbit; Speed Biosystems_YCP8015) (Rabbit, UniProt G1T9B3 19-496); assay: ELISA on coated rabbit ANG-2
T4 construct: Bought protein; also called Rabbit ANG-2
T4 sequence: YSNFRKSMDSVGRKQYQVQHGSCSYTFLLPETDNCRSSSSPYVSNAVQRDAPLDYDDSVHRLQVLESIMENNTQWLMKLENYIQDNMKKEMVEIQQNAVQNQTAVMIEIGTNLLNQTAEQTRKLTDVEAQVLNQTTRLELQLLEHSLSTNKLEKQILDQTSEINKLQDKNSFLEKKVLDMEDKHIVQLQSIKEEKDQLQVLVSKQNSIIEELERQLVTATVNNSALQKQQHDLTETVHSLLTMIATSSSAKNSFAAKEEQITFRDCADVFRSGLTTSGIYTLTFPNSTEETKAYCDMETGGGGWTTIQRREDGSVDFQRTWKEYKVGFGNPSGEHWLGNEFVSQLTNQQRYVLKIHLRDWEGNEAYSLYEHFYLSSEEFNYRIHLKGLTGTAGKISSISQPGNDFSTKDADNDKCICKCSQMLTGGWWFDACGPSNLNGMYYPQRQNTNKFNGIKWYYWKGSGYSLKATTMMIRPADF

[9] = target: T5, Recombinant human VEGF121 (Peprotech, Cat #100-20A) (human, UniProt P15692-9 27-147); assay: ELISA; rhVEGF121 coated, anti-human IgG Fc-HRP detection
T5 construct: Bought protein; also called rhVEGF121; rh VEGF121
T5 sequence (looked up): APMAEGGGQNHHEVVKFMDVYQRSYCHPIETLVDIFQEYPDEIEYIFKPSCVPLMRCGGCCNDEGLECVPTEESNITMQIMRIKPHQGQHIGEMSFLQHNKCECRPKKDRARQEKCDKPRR
Experimental: Donkey anti-human IgG Fcγ-HRP was used for detection (Jackson ImmunoResearch Laboratories, Cat #709-035-098) and visualized by TMB substrate. OD450 nm readings were measured by Victor 3 (PerkinElmer 1420 Multilabel Counter).

[10] = target: T2, Recombinant human VEGF165 (Peprotech, …); assay: ELISA; rhVEGF165 coated at 1 ug/mL, anti-human IgG Fc-HRP detection (RO-101_Sample 1)
Experimental: Donkey anti-human IgG Fcγ-HRP (Jackson ImmunoResearch Laboratories, Cat #709-035-098) was used for detection and visualized by TMB substrate. OD450 nm readings were measured by Victor 3 (PerkinElmer 1420 Multilabel Counter).

binding result [1]: no binding (tested: 100 nM (Log(nM) 2))
EC50 [2]: 17.1 pM
EC50 [3]: 52.6 pM
EC50 [4]: 53.6 pM and 49.8 pM and 44.9 pM
EC50 [5]: 16.2 pM
EC50 [6]: 12.2 pM
fold better than Faricimab [7]: 58 fold
EC50 [8]: 11 pM
EC50 [9]: 8.6 pM
EC50 [10]: 13.5 pM
B1: RO-101 VEGF/ANG-2 bispecific surrobody (bispecific antibody, human IgG1, L234A L235A)
heavy 1: not shown
heavy 2: EVQLVESGGGLVKPGGSLRLSCAASGFTFSSYGMHWVRQAPGKGLEWVAGISADSGDKNYADSVKGRFTISRDNAKNSLYLQMNSLRAEDTAVYYCAKEFISWIYTFDYLDYWGQGTLVTVSSASTKGPSVFPLAPSSKSTSGGTAALGCLVKDYFPEPVTVSWNSGALTSGVHTFPAVLQSSGLYSLSSVVTVPSSSLGTQTYICNVNHKPSNTKVDKKVEPKSCDKTHTCPPCPAPEAAGGPSVFLFPPKPKDTLMISRTPEVTCVVVDVSHEDPEVKFNWYVDGVEVHNAKTKPREEQYNSTYRVVSVLTVLHQDWLNGKEYKCKVSNKALPAPIEKTISKAKGQPREPQVCTLPPSRDELTKNQVSLSCAVKGFYPSDIAVEWESNGQPENNYKTTPPVLDSDGSFFLVSKLTVDKSRWQQGNVFSCSVMHEALHNHYTQKSLSLSPG
light: QPVLHQPPAMSSALGTTIRLTCTLRNDHDIGVYSVYWYQQRPGHPPRFLLRYFSQSDKSQGPQVPPRFSGSKDVARNRGYLSISELQPEDEAMYYCAMGARSSVTHVFGSGTQLTVLSQPKATPSVTLFPPSSEELQANKATLVCLMNDFYPGILTVTWKADGTPITQGVEMTTPSKQSNNKYAASSYLSLTPEQWRSRRSYSCQVMHEGSTVEKTVAPAECS
notes: Format SgG1; also called Sample 1

From patent publication US20250250330A1 (REVOPSIS THERAPEUTICS, published 2025)
